What was measured:
SMAD3 MH1 [1] = target: T1, SMAD3 MH1 (Homo sapiens, UniProt P84022 1-132); assay: EMSA; Hill 3.1; EMSA: 25 mM Tris-HCl (pH not given for binding buffer; RNA stock pH 7.5), 115 mM KCl, 1 mM MgCl2, 1 mM DTT, 20 ng/ul poly I:C, 0.1 mg/ml BSA, 10% glycerol, on ice 2 h; 0.5x TBE gel at 4 C; conditions: protein: recombinant; tags: 6xHis-SUMO cleaved; label: 5' 32P; hairpin
SMAD3 MH1 [2] = target: T1, SMAD3 MH1; assay: EMSA; Hill 3.4; EMSA: 25 mM Tris-HCl (pH not given for binding buffer; RNA stock pH 7.5), 115 mM KCl, 1 mM MgCl2, 1 mM DTT, 20 ng/ul poly I:C, 0.1 mg/ml BSA, 10% glycerol, on ice 2 h; 0.5x TBE gel at 4 C; conditions: protein: recombinant; tags: 6xHis-SUMO cleaved; label: 5' 32P; hairpin
SMAD3 MH1 [3] = target: T1, SMAD3 MH1; assay: EMSA; Hill 1.9; EMSA: 25 mM Tris-HCl (pH not given for binding buffer; RNA stock pH 7.5), 115 mM KCl, 1 mM MgCl2, 1 mM DTT, 20 ng/ul poly I:C, 0.1 mg/ml BSA, 10% glycerol, on ice 2 h; 0.5x TBE gel at 4 C; conditions: protein: recombinant, tags: 6xHis-SUMO cleaved
SMAD3 MH1 [4] = target: T1, SMAD3 MH1; assay: EMSA; Hill 1.8; EMSA: 25 mM Tris-HCl (pH not given for binding buffer; RNA stock pH 7.5), 115 mM KCl, 1 mM MgCl2, 1 mM DTT, 20 ng/ul poly I:C, 0.1 mg/ml BSA, 10% glycerol, on ice 2 h; 0.5x TBE gel at 4 C; conditions: protein: recombinant, tags: 6xHis-SUMO cleaved
SMAD3 MH1 [5] = target: T1, SMAD3 MH1; assay: EMSA; Hill 1.1; EMSA: 25 mM Tris-HCl (pH not given for binding buffer; RNA stock pH 7.5), 115 mM KCl, 1 mM MgCl2, 1 mM DTT, 20 ng/ul poly I:C, 0.1 mg/ml BSA, 10% glycerol, on ice 2 h; 0.5x TBE gel at 4 C; conditions: protein: recombinant; tags: 6xHis-SUMO cleaved; label: 5' 32P; structured, multi-loop
SMAD3 MH1 [6] = target: T1, SMAD3 MH1; assay: EMSA; Hill 1.7; EMSA: 25 mM Tris-HCl (pH not given for binding buffer; RNA stock pH 7.5), 115 mM KCl, 1 mM MgCl2, 1 mM DTT, 20 ng/ul poly I:C, 0.1 mg/ml BSA, 10% glycerol, on ice 2 h; 0.5x TBE gel at 4 C; conditions: protein: recombinant, tags: 6xHis-SUMO cleaved
SMAD3 MH1 [7] = target: T1, SMAD3 MH1; assay: EMSA; Hill 2.5; EMSA: 25 mM Tris-HCl (pH not given for binding buffer; RNA stock pH 7.5), 115 mM KCl, 1 mM MgCl2, 1 mM DTT, 20 ng/ul poly I:C, 0.1 mg/ml BSA, 10% glycerol, on ice 2 h; 0.5x TBE gel at 4 C; conditions: protein: recombinant; tags: 6xHis-SUMO cleaved; label: 5' 32P; hairpin with 2x3 internal loop
SMAD3 MH1 [8] = target: T1, SMAD3 MH1; assay: EMSA; Hill 2.7; EMSA: 25 mM Tris-HCl (pH not given for binding buffer; RNA stock pH 7.5), 115 mM KCl, 1 mM MgCl2, 1 mM DTT, 20 ng/ul poly I:C, 0.1 mg/ml BSA, 10% glycerol, on ice 2 h; 0.5x TBE gel at 4 C; conditions: protein: recombinant; tags: 6xHis-SUMO cleaved; label: 5' 32P; hairpin
SMAD3 MH1 [9] = target: T1, SMAD3 MH1; assay: EMSA; Hill 3.6; EMSA: 25 mM Tris-HCl (pH not given for binding buffer; RNA stock pH 7.5), 115 mM KCl, 1 mM MgCl2, 1 mM DTT, 20 ng/ul poly I:C, 0.1 mg/ml BSA, 10% glycerol, on ice 2 h; 0.5x TBE gel at 4 C; conditions: protein: recombinant; tags: 6xHis-SUMO cleaved; label: 5' 32P (EMSA); hairpin
SMAD3 MH1 [10] = target: T1, SMAD3 MH1; assay: EMSA; Hill 2.2; EMSA: 25 mM Tris-HCl (pH not given for binding buffer; RNA stock pH 7.5), 115 mM KCl, 1 mM MgCl2, 1 mM DTT, 20 ng/ul poly I:C, 0.1 mg/ml BSA, 10% glycerol, on ice 2 h; 0.5x TBE gel at 4 C; conditions: protein: recombinant; tags: 6xHis-SUMO cleaved; label: 5' 32P; hairpin with 1x5 internal loop
SMAD3 MH1 [11] = target: T1, SMAD3 MH1; assay: EMSA; Hill 3.2; EMSA: 25 mM Tris-HCl (pH not given for binding buffer; RNA stock pH 7.5), 115 mM KCl, 1 mM MgCl2, 1 mM DTT, 20 ng/ul poly I:C, 0.1 mg/ml BSA, 10% glycerol, on ice 2 h; 0.5x TBE gel at 4 C; conditions: protein: recombinant; tags: 6xHis-SUMO cleaved; label: 5' 32P; hairpin with single-stranded flanks
SMAD3 MH1 [12] = target: T1, SMAD3 MH1; assay: EMSA; Hill 3.0; EMSA: 25 mM Tris-HCl (pH not given for binding buffer; RNA stock pH 7.5), 115 mM KCl, 1 mM MgCl2, 1 mM DTT, 20 ng/ul poly I:C, 0.1 mg/ml BSA, 10% glycerol, on ice 2 h; 0.5x TBE gel at 4 C; conditions: protein: recombinant; tags: 6xHis-SUMO cleaved; label: 5' 32P; hairpin
SMAD3 MH1 [13] = target: T1, SMAD3 MH1; assay: EMSA; Hill 2.1; EMSA: 25 mM Tris-HCl (pH not given for binding buffer; RNA stock pH 7.5), 115 mM KCl, 1 mM MgCl2, 1 mM DTT, 20 ng/ul poly I:C, 0.1 mg/ml BSA, 10% glycerol, on ice 2 h; 0.5x TBE gel at 4 C; conditions: protein: recombinant; tags: 6xHis-SUMO cleaved; label: 5' 32P; hairpin with 6x3 internal loop
SMAD3 MH1 [14] = target: T1, SMAD3 MH1; assay: EMSA; Hill 1.6; EMSA: 25 mM Tris-HCl (pH not given for binding buffer; RNA stock pH 7.5), 115 mM KCl, 1 mM MgCl2, 1 mM DTT, 20 ng/ul poly I:C, 0.1 mg/ml BSA, 10% glycerol, on ice 2 h; 0.5x TBE gel at 4 C; conditions: protein: recombinant; tags: 6xHis-SUMO cleaved; label: 5' 32P; hairpin
[15] = label: 5' 32P, hairpin with 6x3 internal loop

T1 sequence (P84022 1-132): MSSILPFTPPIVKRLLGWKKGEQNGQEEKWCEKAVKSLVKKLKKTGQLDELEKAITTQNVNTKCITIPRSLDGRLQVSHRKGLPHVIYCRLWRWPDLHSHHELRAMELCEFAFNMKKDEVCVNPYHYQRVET

GGACGCUUAUCAGACUGAUGUUGUUCGCAACACCAGUCGAUGGGCGUCC (structured_RNA) [1a hsa-miR-21 central stem] was tested, and the Kd (SMAD3 MH1 [1]) was 2.5 ± 0.1 µM.

In the case of GGACGCUUAUAAAACUGAUGUUGUUCGCAACACCAGUUUAUGGGCGUCC (structured_RNA) [1b hsa-miR-21 central stem dSBE], the Kd (SMAD3 MH1 [2]) is reported as 2.7 ± 0.1 µM.

B1: 19 dsDNA with 1 SBE (dsDNA)
DNA 1: GTATGTCTCAGATGAA
DNA 2: TTCATCTGAGACATAC
B1 gave a Kd (SMAD3 MH1 [3]; label: 5' 32P on one strand, blunt) of 0.19 ± 0.02 µM.

GAUACUUGAAACUGUAAGGUUGGCGUAUC (structured_RNA) [20 NF-kB aptamer] gave a Kd (SMAD3 MH1 [4]; label: 5' 32P, hairpin with 4x3 internal loop) of 4.4 ± 0.6 µM.

B2: 11 VAI (structured_RNA)
RNA: GGGCACUCUUCCGUGGUCUGGUGGAUAAAUUCGCAAGGGUAUCAUGGCGGACGACCGGGGUUCGAACCCCGGAUCCGGCCGUCCGCCGUGAUCCAUGCGGUUACCGCCCGCGUGUCGAACCCAGGUGUGCGACGUCAGACAACGGGGGAGCGCUC
B2 gave a Kd (SMAD3 MH1 [5]) of 0.11 ± 0.02 µM.

In the case of GGGUCUCGUAUUGCAGAAAUGACUUCGGUCAAAUCAAGAGAGAC (structured_RNA) [17b D4a truncation 2], the Kd (SMAD3 MH1 [4]; [15]) is reported as 0.48 ± 0.08 µM.

B3: 17 Group II intron D4A (structured_RNA)
RNA: GGGGUCUCGUAUUGCAGAAAUGACAACAUCUGCCGUAACCAAUCGGGUAAAAGGUGGUCAAAUCAAGCGAGAC
With B3 the Kd (SMAD3 MH1 [6]; label: 5' 32P (EMSA), hairpin with 1x5 and 6x3 internal loops) was 0.19 ± 0.01 µM.

B4: 3c hsa-miR-199a-1 stem loop (structured_RNA)
RNA: GGCCAACCCAGUGUUCAGACUACCUGUUCAGGAGGCUCUCAAUGUGUACAGUAGUCUGCACAUUGGUUAGGCC
With B4 the Kd (SMAD3 MH1 [3]; label: 5' 32P, hairpin) was 1.25 ± 0.05 µM.

For GGUCUGGGCGCAGCGCAAGCUGACGGUACAGGCC (structured_RNA) [21 RRE], the Kd (SMAD3 MH1 [7]) was 3 ± 0.3 µM.

GGACGUGAGGUAGUAUGUAAGCGUUCGCGCUUUCAACUAACUCGCGUCC (structured_RNA) [9a cel-miR-84 central stem] showed a Kd (SMAD3 MH1 [8]) of 2.9 ± 0.1 µM.

B5: 16 30-bp hairpin (structured_RNA)
RNA: GGAUCGAUCGAUCGAUCGGCAUCGAUCGGCUUCGGCCGAUCGAUGCCGAUCGAUCGAUCGAUCC
In the case of B5, the Kd (SMAD3 MH1 [9]) is reported as 4 ± 0.2 µM.

B6: 18 ai5-gamma D3 (structured_RNA)
RNA: GGGUAUAAAAAGCUAAUGCCAUAUUGUAAUGAUAUGGAUAAGAAUUAUUAUUCUAAAGAUGAAAAUCUGCUAACUUAUACUG
In the case of B6, the Kd (SMAD3 MH1 [4]; label: 5' 32P (EMSA), four-way junction with bulged stem) is reported as 0.19 ± 0.03 µM.

B7: 17e D4a isolated apical loop (structured_RNA)
RNA: GGGUCUCGUAUUGCAGAUGACACAUCUGCCGUAACCAAUCGGGUAAAAGGUGUGUCAUCUGCAAUGCGAGAC
B7 showed a Kd (SMAD3 MH1 [10]) of 0.4 ± 0.01 µM.

B8: 10 hsa-miR-21 extended (structured_RNA)
RNA: GGGUGUUUUGCCUACCAUCGUGACAUCUCCAUGGCUGUACCACCUUGUCGGGUAGCUUAUCAGACUGAUGUUGACUGUUGAAUCUCAUGGCAACACCAGUCGAUGGGCUGUCUGACAUUUUGGUAUCUUUCAUCUGACCAUCCAUAUCCAAUGUUCUCAG
In the case of B8, the Kd (SMAD3 MH1 [11]) is reported as 0.7 ± 0.06 µM.

B9: 17a D4a truncation 1 (structured_RNA)
RNA: GGGUCUCGUAUUGCAGAAAUGACAACAUCUUUCGAGGUGGUCAAAUCAAGCGAGAC
Binder B9 has a Kd (SMAD3 MH1 [6]; [15]) of 0.34 ± 0.07 µM.

Binder GGACGUACUGCCAGAAGUGGGCGUUCGCGCGUACUCUGGUGGGUACGUCC (structured_RNA) [6b hsa-miR-509 central stem dSBE] has a Kd (SMAD3 MH1 [12]) of 3 ± 0.3 µM.

B10: 9c cel-miR-84 stem loop (structured_RNA)
RNA: GGCAUCUGAGGUAGUAUGUAAUAUUGUAGACUGUCUAUAAUGUCCACAAUGUUUCAACUAACUCGGCUGCC
In the case of B10, the Kd (SMAD3 MH1 [8]) is reported as 1.6 ± 0.1 µM.

B11: 17d D4a isolated terminal loop (structured_RNA)
RNA: GGGUCUCGUAUUGCAGAAAUGACACAUCUUGCCCGUAACCAAUCGGGUAAGGUGUGUCAAAUCAAUGCGAGAC
B11 was tested, and the Kd (SMAD3 MH1 [13]) was 0.57 ± 0.02 µM.

For GGGUCUCGUAUUGCAGAAAUAAAUCAAGCGAGAC (structured_RNA) [17c D4a truncation 3], the Kd (SMAD3 MH1 [14]) was 1.5 ± 0.3 µM.

GGACGUACUGCAGACAGUGGGCGUUCGCGCGUACGUCUGUGGGUACGUCC (structured_RNA) [6a hsa-miR-509 central stem] was tested, and the Kd (SMAD3 MH1 [4]; label: 5' 32P, hairpin) was 2.1 ± 0.3 µM.
